Results from patent publication US20250296984A1, “THERAPEUTIC AND DIAGNOSTIC AGENTS AND USES THEREOF” (priority 2022, published 2025).

Experiments:
[1] = test system: HCMV infected human lung tissue; experiment: Immunohistochemistry (IHC) on HCMV infected human lung tissue and controls; conditions: HCMV positive control slide, FIG. 12
Protocol: (§1) Cytomegalovirus (CMV) control slides containing CMV positive lung tissue and CMV negative myometrium (product number #3240A) were obtained from Newcomer Supply Inc., Middleton, WI 53562-2579, USA. Tissue micro-arrays (TMAs) were obtained from US Biomax Inc., Derwood, MD 20855, USA, and included tumor tissues #BR1008b, #BS17016c, #BCN721b and normal tissues #FDA662a and heart tissues #HEN241a.
(§2) The paraffin sections were sequentially immersed into a. 100% xylene three times (5 min each); b. 100% ethanol twice (2 min each); c. 95% ethanol twice (2 min each). The slides were rinsed twice in water for 5 min to remove ethanol. […], the slides were immersed in 3% H2O2 for 5 minutes and washed thereafter twice (2×) with distilled water. The slides were then immersed in the working citrate buffer (pH 6.0) and covered with a lid. The buffer was heated in the microwave until it had boiled, and then kept in the steamer for 15 min.
(§3) The sections were cooled at room temperature for 30 min and washed with PBS. 5% BSA blocking solution was then added to the HIER treated samples and they were incubated at 37° C. for 30 min. […] Digitized pictures were taken by Olympus VS120 scanner and analyzed by using OlyVia 3.2 software (Olympus Corporation, 20101 Tokyo, Japan) by senior Pathologist.

[2] = test system: US28 negative CHO control cells; experiment: Flow cytometry off-target binding to US28 negative control CHO cells; design: species or system Chinese Hamster; conditions: 1:10 dilution (w/v), after removing binding to blank and secondary Ab controls
From the text: FIG. 4. The positive surface binding of the clone US28-13-5G6-1D3 on CHO-US28-A1 cells was compared with the US28 negative CHO control cells. The clone US28-13-5G6-1D3 Ab bound 15-fold more to the surface of the US28 positive CHO-US28-A1 cells than to the US28 negative CHO cells in 1:50 (w/v).
FIG. 7. Surface binding of 13-5G6-1D3 rAb on CHO-US28-A1 cells, and on respective control CHO cells were validated by using FACS analysis. The bars showing results for CHO cells are colored with dark grey whereas the bars showing results for CHO-US28-A1 cells are colored with pale grey color. […] The surface binding of the 13-5G6-1D3 rAb to CHO cells was only measured in 1:10 dilution (w/v) and was 0.77% after removing the binding to blank and anti-mouse IgG-Alexa 488 secondary Ab controls.
FIG. 22. Percentage off-target binding of various ECD3-binding molecules of the invention (A) or various SEQ ID NO: 177-binding molecules of the invention (B), in comparison with VUN100, as assessed by binding to control CHO cells.
In a further embodiment, it is preferred that a binding molecule of the present invention binds preferentially to US28-expressing cells (such as CHO cells engineered to express US28) compared to its binding of US28-negative cells (such as wildtype CHO cells), for example, at a 1:50 (w/v) dilution, for example as determined by flow cytometry assay. […]

[3] = test system: human heart muscle tissue; experiment: Immunohistochemistry (IHC) on human cardiac tissues; conditions: FIG. 19 B
Protocol: as §1, §2
as §3, with “Pathologist. […]” for “Pathologist.”

B1: 13-5G6-1D3 rAb: recombinant antibody product of US28-13-5G6-1D3 produced in HEK293-F cells (antibody)
heavy: EVKLVESGGGLVQPGGSLRLACATSGFTFTDYYMSWVRQPPGKALEWLGFIRSKANGYTTEYSASVKGRFTISRDNSQSILYLQMNTLRSEDSATYYCARDERRTAWLAYWGQGTLVTVSAAKTTPPSVYPLAPGSAAQTNSMVTLGCLVKGYFPEPVTVTWNSGSLSSGVHTFPAVLQSDLYTLSSSVTVPSSTWPSETVTCNVAHPASSTKVDKKIVPRDCGCKPCICTVPEVSSVFIFPPKPKDVLTITLTPKVTCVVVDISKDDPEVQFSWFVDDVEVHTAQTQPREEQFNSTFRSVSELPIMHQDWLNGKEFKCRVNSAAFPAPIEKTISKTKGRPKAPQVYTIPPPKEQMAKDKVSLTCMITDFFPEDITVEWQWNGQPAENYKNTQPIMDTDGSYFIYSKLNVQKSNWEAGNTFTCSVLHEGLHNHHTEKSLSHSPGK
light: DVLMTQTPLSLPVSLGDQASISCRSSQSIVHSNGNTYLDWYLQKPGQSPKLLIYKVSNRFSGVPDRFSGSGSGTDFTLKISRVEAEDLGVYYCFQGSHVPTWTFGGGTKLEIKRADAAPTVSIFPPSSEQLTSGGASVVCFLNNFYPKDINVKWKIDGSERQNGVLNSWTDQDSKDSTYSMSSTLTLTKDEYERHNSYTCEATHKTSTSPIVKSFNRNEC
IHC staining of HCMV infected cells in lung tissue [1]: strong cytoplasmic staining | surface binding to CHO cells, percent of cells [2]: 0.77%

B2: 13-5G6-1D3: mouse monoclonal IgG1 kappa antibody against US28 ECD3; VH SEQ ID NO: 12, VL SEQ ID NO: 18 (antibody, V domains shown)
VH: EVKLVESGGGLVQPGGSLRLACATSGFTFTDYYMSWVRQPPGKALEWLGFIRSKANGYTTEYSASVKGRFTISRDNSQSILYLQMNTLRSEDSATYYCARDERRTAWLAYWGQGTLVTVSA
VL: DVLMTQTPLSLPVSLGDQASISCRSSQSIVHSNGNTYLDWYLQKPGQSPKLLIYKVSNRFSGVPDRFSGSGSGTDFTLKISRVEAEDLGVYYCFQGSHVPTWTFGGGTKLEIK
modifications: Mature form of VH sequence of 1D3, without the leader sequence; Mature form of VL sequence of 1D3, without the leader sequence
off-target binding in IHC [3]: did not show any general off-target binding
